From US20210403506A1 (XDCEXPLORER SHANGHAI, published 2021)
Square brackets hold non-standard residues; d marks the D form. Ends that are not written are not given here. * marks the point of attachment. Pro(diF) = difluoro-proline, as coded in the source; DiMe = N,N-dimethyl (N-terminal dimethylation); PEG8 = NCCOCCOCCOCCOCCOCCOCCOCCOCCC(=O)O; dOic = O=C(O)[C@H]1C[C@H]2CCCC[C@H]2N1; 1Nal = N[C@@H](Cc1cccc2ccccc12)C(=O)O; 2Nal = N[C@@H](Cc1ccc2ccccc2c1)C(=O)O; dNMeY = CN[C@H](Cc1ccc(O)cc1)C(=O)O; Hydrocinnamoyl = O=C(CCc1ccccc1)*; NMehLeu = CN[C@@H](CCC(C)C)C(=O)O; Palmitoyl = CCCCCCCCCCCCCCCC(=O)*; NMeF = CN[C@@H](Cc1ccccc1)C(=O)O; Myristoyl = CCCCCCCCCCCCCC(=O)*; Tic = O=C(O)[C@@H]1Cc2ccccc2CN1; dTic = O=C(O)[C@H]1Cc2ccccc2CN1; NMeL = CN[C@@H](CC(C)C)C(=O)O; Lauroyl = CCCCCCCCCCCC(=O)*; NHoSer = not defined here; NMeS = CN[C@@H](CO)C(=O)O; hSer = N[C@@H](CCO)C(=O)O; Hexanoyl = CCCCCC(=O)*; βAla = NCCC(=O)O

B1: YW-168 (peptide)
peptide: [dNMeY]F[NMeL]P[dS]Q[1Nal][dA][Tic]S-OH
modifications: N-terminus assumed
SMILES: CN[C@H](Cc1ccc(O)cc1)C(=O)N[C@@H](Cc1ccccc1)C(=O)N(C)[C@@H](CC(C)C)C(=O)N1CCC[C@H]1C(=O)N[C@H](CO)C(=O)N[C@@H](CCC(N)=O)C(=O)N[C@@H](Cc1cccc2ccccc12)C(=O)N[C@H](C)C(=O)N1Cc2ccccc2C[C@H]1C(=O)N[C@@H](CO)C(=O)O
B2: YW-164 (peptide)
peptide: [dY]F[NMeL]P[dS]Q[2Nal][dA][Tic]S-OH
modifications: N-terminus assumed
SMILES: CC(C)C[C@@H](C(=O)N1CCC[C@H]1C(=O)N[C@H](CO)C(=O)N[C@@H](CCC(N)=O)C(=O)N[C@@H](Cc1ccc2ccccc2c1)C(=O)N[C@H](C)C(=O)N1Cc2ccccc2C[C@H]1C(=O)N[C@@H](CO)C(=O)O)N(C)C(=O)[C@H](Cc1ccccc1)NC(=O)[C@H](N)Cc1ccc(O)cc1
B3: YW-163 (peptide)
peptide: [dNMeY]F[NMeL]P[dS]QF[dA][Tic]S-OH
modifications: N-terminus assumed
SMILES: CN[C@H](Cc1ccc(O)cc1)C(=O)N[C@@H](Cc1ccccc1)C(=O)N(C)[C@@H](CC(C)C)C(=O)N1CCC[C@H]1C(=O)N[C@H](CO)C(=O)N[C@@H](CCC(N)=O)C(=O)N[C@@H](Cc1ccccc1)C(=O)N[C@H](C)C(=O)N1Cc2ccccc2C[C@H]1C(=O)N[C@@H](CO)C(=O)O
B4: YW-100 (peptide)
peptide: [dY]F[NMeF]P[dS]QF[dA][Tic]S-OH
modifications: N-terminus assumed
SMILES: C[C@@H](NC(=O)[C@H](Cc1ccccc1)NC(=O)[C@H](CCC(N)=O)NC(=O)[C@@H](CO)NC(=O)[C@@H]1CCCN1C(=O)[C@H](Cc1ccccc1)N(C)C(=O)[C@H](Cc1ccccc1)NC(=O)[C@H](N)Cc1ccc(O)cc1)C(=O)N1Cc2ccccc2C[C@H]1C(=O)N[C@@H](CO)C(=O)O
B5: YW-101 (peptide)
peptide: [dY]F[NMehLeu]P[dS]QF[dA][Tic]S-OH
modifications: N-terminus assumed
SMILES: CC(C)CC[C@@H](C(=O)N1CCC[C@H]1C(=O)N[C@H](CO)C(=O)N[C@@H](CCC(N)=O)C(=O)N[C@@H](Cc1ccccc1)C(=O)N[C@H](C)C(=O)N1Cc2ccccc2C[C@H]1C(=O)N[C@@H](CO)C(=O)O)N(C)C(=O)[C@H](Cc1ccccc1)NC(=O)[C@H](N)Cc1ccc(O)cc1
B6: YW-166 (peptide)
peptide: [dY]F[NMeL]P[dS]QF[dA][Tic][NMeS]-OH
modifications: N-terminus assumed
SMILES: CC(C)C[C@@H](C(=O)N1CCC[C@H]1C(=O)N[C@H](CO)C(=O)N[C@@H](CCC(N)=O)C(=O)N[C@@H](Cc1ccccc1)C(=O)N[C@H](C)C(=O)N1Cc2ccccc2C[C@H]1C(=O)N(C)[C@@H](CO)C(=O)O)N(C)C(=O)[C@H](Cc1ccccc1)NC(=O)[C@H](N)Cc1ccc(O)cc1
B7: YW-190 (peptide)
peptide: [dY]F[NMeL]P[dS]QF[dA]XS-NH2
modifications: not fully specified (residue 9); printed as (D-Tyr)-Phe-(NMe-Leu)-Pro-(D-Ser)-Gln-Phe-(D-Ala)-Tic-Ser-NH2
B8: YW-167 (peptide)
peptide: [dNMeY]F[NMeL]P[dS]Q[2Nal][dA][Tic]S-OH
modifications: N-terminus assumed
SMILES: CN[C@H](Cc1ccc(O)cc1)C(=O)N[C@@H](Cc1ccccc1)C(=O)N(C)[C@@H](CC(C)C)C(=O)N1CCC[C@H]1C(=O)N[C@H](CO)C(=O)N[C@@H](CCC(N)=O)C(=O)N[C@@H](Cc1ccc2ccccc2c1)C(=O)N[C@H](C)C(=O)N1Cc2ccccc2C[C@H]1C(=O)N[C@@H](CO)C(=O)O
B9: YW-165 (peptide)
peptide: [dY]F[NMeL]P[dS]Q[1Nal][dA][Tic]S-OH
modifications: N-terminus assumed
SMILES: CC(C)C[C@@H](C(=O)N1CCC[C@H]1C(=O)N[C@H](CO)C(=O)N[C@@H](CCC(N)=O)C(=O)N[C@@H](Cc1cccc2ccccc12)C(=O)N[C@H](C)C(=O)N1Cc2ccccc2C[C@H]1C(=O)N[C@@H](CO)C(=O)O)N(C)C(=O)[C@H](Cc1ccccc1)NC(=O)[C@H](N)Cc1ccc(O)cc1
B10: YW-171 (peptide)
peptide: [dY]F[NMeL]P[dS]QF[dA][Tic][hSer]-OH
modifications: N-terminus assumed
SMILES: CC(C)C[C@@H](C(=O)N1CCC[C@H]1C(=O)N[C@H](CO)C(=O)N[C@@H](CCC(N)=O)C(=O)N[C@@H](Cc1ccccc1)C(=O)N[C@H](C)C(=O)N1Cc2ccccc2C[C@H]1C(=O)N[C@@H](CCO)C(=O)O)N(C)C(=O)[C@H](Cc1ccccc1)NC(=O)[C@H](N)Cc1ccc(O)cc1
B11: YW-172 (peptide)
peptide: [dY]F[NMeL]P[dS]QF[dA][Tic][NHoSer]-OH
modifications: reading uncertain; also: printed as (D-Tyr)-Phe-(NMe-Leu)-Pro-(D-Ser)-Gln-Phe-(D-Ala)-Tic-(NHoSer)
B12: YW-105 (peptide)
peptide: [dY][NMeF][NMeL]P[dS]QF[dA][Tic]S-OH
modifications: N-terminus assumed
SMILES: CC(C)C[C@@H](C(=O)N1CCC[C@H]1C(=O)N[C@H](CO)C(=O)N[C@@H](CCC(N)=O)C(=O)N[C@@H](Cc1ccccc1)C(=O)N[C@H](C)C(=O)N1Cc2ccccc2C[C@H]1C(=O)N[C@@H](CO)C(=O)O)N(C)C(=O)[C@H](Cc1ccccc1)N(C)C(=O)[C@H](N)Cc1ccc(O)cc1

Biological target: T1, human Chemokine like receptor 1 (human, UniProt Q99788 1-373)
T1 sequence (looked up): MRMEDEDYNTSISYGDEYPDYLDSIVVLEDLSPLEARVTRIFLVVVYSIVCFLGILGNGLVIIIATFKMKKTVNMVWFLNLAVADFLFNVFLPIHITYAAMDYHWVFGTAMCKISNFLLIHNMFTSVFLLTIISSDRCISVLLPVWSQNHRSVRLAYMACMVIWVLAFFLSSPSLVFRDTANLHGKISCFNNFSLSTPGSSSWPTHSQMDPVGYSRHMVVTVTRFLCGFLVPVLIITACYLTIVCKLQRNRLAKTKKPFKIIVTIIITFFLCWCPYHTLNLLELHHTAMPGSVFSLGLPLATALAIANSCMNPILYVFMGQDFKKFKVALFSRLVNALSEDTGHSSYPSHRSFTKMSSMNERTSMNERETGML
Experiment: cell-based or functional assay

Binder	EC50 (µM), activation of Tango CMKLR1-bla U2OS cells
[dY]F[NMeL]P[dS]QF[dA][dTic][NMeS] [YW-182]	0.041 µM
B1	0.0012 µM
B2	0.0011 µM
B3	0.0022 µM
{Lauroyl-PEG8}-[βAla][βAla][dNMeY]F[NMeL]P[dS]Q[2Nal][dA][Tic][NMeS] [YW-181]	0.0022 µM
B4	0.042 µM
B5	0.0029 µM
[dY]F[NPrL]P[dS]QF[dA][Tic]S [YW-184]	0.016 µM
B6	0.005 µM
Hydrocinnamoyl-[dY]F[NPrL]P[dS]QF[dA][Tic]S [YW-186]	0.011 µM
[dY]F[NEtL]P[dS]QF[dA][Tic]S [YW-183]	0.0092 µM
Hydrocinnamoyl-[dY]F[NEtL]P[dS]QF[dA][Tic]S [YW-185]	0.0059 µM
DiMe-[dY]F[NMeL]P[dS]QF[dA][Tic]S [YW-192]	0.0026 µM
[dY]F[NMeL][Pro(diF)][dS]QF[dA][Tic]S-OH [YW-174]	0.0012 µM
B7	0.0027 µM
{Palmitoyl-PEG8}-GG[dNMeY]F[NMeL]P[dS]Q[2Nal][dA][Tic][NMeS] [YW-178]	0.0021 µM
B8	0.0008 µM
B9	0.0015 µM
{2‑cyclohexylacetyl}-[dY]F[NMeL]P[dS]QF[dA][Tic]S [YW-194]	0.0012 µM
B10	0.029 µM
{Myristoyl-PEG8}-[βAla][βAla][dNMeY]F[NMeL]P[dS]Q[2Nal][dA][Tic][NMeS] [YW-180]	0.0014 µM
Hexanoyl-[dY]F[NMeL]P[dS]QF[dA][Tic]S [YW-193]	0.0014 µM
{Palmitoyl-PEG8}-[βAla][βAla][dNMeY]F[NMeL]P[dS]Q[2Nal][dA][Tic][NMeS] [YW-179]	0.0021 µM
B11	0.0058 µM
[dY]F[NMeL]P[dHoSer]QF[dA][Tic]S-OH [YW-175]	0.091 µM
[dY]F[NMeL]P[dS]QF[dA][dOic]S-OH [YW-176]	0.0038 µM
B12	0.0106 µM
[dY]F[NMeL]P[dS]QF[dA][Tic][NMeHoSer]-OH [YW-177]	0.025 µM
